Results on two substances are retold here after patent US20140356418A1.

Assay [1] has as its target Aβ42 fibrils (immobilized Aβ(1-42) fibrils) (UniProt P05067). Kind of assay: SPR, Aβ fibrils (summary of the Examples). In general terms: SPR reads the build-up and loss of mass on a sensor chip optically.
Assay [2] shares this target. Kind of assay: SPR (Sensi Q), immobilized Aβ(1-42) fibrils, fit of a single curve; (the concentration, 1 or 3 µM, is not given).
Assay [3] shares this target. As to the kind of experiment: SPR (Sensi Q), immobilized Aβ(1-42) fibrils, fit of a single curve; inset table row 2 (the row's concentration, 1 or 3 µM, is not given).
For assay [4] the target is unchanged. As to the kind of experiment: SPR, Aβ42 fibrils immobilized, Langmuir 1:1 fit.
For assay [5] the target is unchanged. As to the kind of experiment: SPR, Aβ42 fibrils immobilized, Langmuir 1:1 fit, curves fitted separately; lower end of the range from curves fitted separately (1, 3, 6 µM RI-OR2-TAT).
The target is the same in assay [6]. Kind of assay: SPR, Aβ42 fibrils immobilized, Langmuir 1:1 fit, curves fitted separately; upper end of the range from curves fitted separately (1, 3, 6 µM RI-OR2-TAT).

Chain of Aβ42 fibrils (immobilized Aβ(1-42) fibrils) (P05067 672-713 limits assumed): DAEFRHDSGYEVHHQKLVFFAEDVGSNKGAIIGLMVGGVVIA

Turning to “PINPs (Peptide Inhibitor NanoParticles): RI-OR2-TAT covalently attached to nanoliposomes”, the Kd in assay [1] lay in the range of 14 to 44 nM. Moreover, in assay [2], the Kd came out at 14.8 nM, the koff stood at 6.71e-05 s⁻¹ and the kon was determined as 4520 M⁻¹ s⁻¹. In assay [3], this substance gave a Kd of 44.7 nM, a koff of 5.31e-05 s⁻¹ and an on-rate (kon) of 1190 M⁻¹ s⁻¹.
As for “RI-OR2-TAT (Ac-rGffvlkGrrrrqrrkkrGy-NH2) (peptide)”, the equilibrium dissociation constant (Kd) in assay [1] was 41 to 75 nM; in assay [2] it was 75.6 nM; in assay [3], 41.5 nM; in assay [5], 58 to 125 nM; in assay [6] it was 58 to 125 nM. Further, the off-rate constant (koff) in assay [4] stood at 0.00037 s⁻¹; in assay [2], 0.00096 s⁻¹; in assay [3], 0.000994 s⁻¹. Also, the figures for the association rate constant (kon) in assay [4], in assay [2] and in assay [3] were 3680 M⁻¹ s⁻¹, 12700 M⁻¹ s⁻¹ and 23900 M⁻¹ s⁻¹, respectively.

The term Kd denotes the equilibrium constant for the complex coming apart. A low value points to tighter binding. By koff is commonly meant the first-order rate constant of dissociation. A lower koff goes with slow dissociation. What is called kon is the second-order rate constant of association. Read a high kon as fast association.
